Laboratory results: paper PMC5780496

Target: HACE1 (UniProt Q8IYU2)
Assay: co-IP of differently tagged HACE1
Settings: reference: HACE1 WT with PAK1(K141A); sites S385

HACE1, sequence (Q8IYU2 whole entry, stated change not applied): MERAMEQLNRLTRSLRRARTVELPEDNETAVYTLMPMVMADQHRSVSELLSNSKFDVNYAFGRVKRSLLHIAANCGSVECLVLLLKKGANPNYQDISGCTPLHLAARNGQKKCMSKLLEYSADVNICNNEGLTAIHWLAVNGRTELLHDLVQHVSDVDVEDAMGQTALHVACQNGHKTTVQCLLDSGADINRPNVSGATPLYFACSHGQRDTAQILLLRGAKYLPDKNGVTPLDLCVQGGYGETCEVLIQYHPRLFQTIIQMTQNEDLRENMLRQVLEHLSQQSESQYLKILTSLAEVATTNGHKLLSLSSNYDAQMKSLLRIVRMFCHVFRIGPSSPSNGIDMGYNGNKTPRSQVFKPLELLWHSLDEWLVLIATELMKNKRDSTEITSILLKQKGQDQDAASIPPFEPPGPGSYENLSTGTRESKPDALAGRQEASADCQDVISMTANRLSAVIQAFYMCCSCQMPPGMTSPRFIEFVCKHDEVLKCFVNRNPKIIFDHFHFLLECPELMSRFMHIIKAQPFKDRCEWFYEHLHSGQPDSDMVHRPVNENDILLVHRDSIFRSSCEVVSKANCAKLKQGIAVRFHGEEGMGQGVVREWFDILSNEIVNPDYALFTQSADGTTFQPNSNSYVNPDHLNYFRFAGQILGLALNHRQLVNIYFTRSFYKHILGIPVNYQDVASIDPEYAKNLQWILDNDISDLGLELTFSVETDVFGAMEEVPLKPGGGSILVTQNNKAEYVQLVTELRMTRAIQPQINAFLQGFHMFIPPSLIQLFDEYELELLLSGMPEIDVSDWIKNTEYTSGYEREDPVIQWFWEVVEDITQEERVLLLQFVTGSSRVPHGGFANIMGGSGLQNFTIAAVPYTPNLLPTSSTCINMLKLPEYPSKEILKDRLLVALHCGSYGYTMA

binding against the reference: weaker
Substance: HACE1 (from UniProt Q8IYU2) HACE1 S385A with PAK1(K141A)
